Measured values as given in PMC5748984 (The Journal of Cell Biology, 2018).

What was measured:
Gdi1 = biological target: T1, Gdi1 (UniProt P39958 1-451); test: SEC
T1 sequence: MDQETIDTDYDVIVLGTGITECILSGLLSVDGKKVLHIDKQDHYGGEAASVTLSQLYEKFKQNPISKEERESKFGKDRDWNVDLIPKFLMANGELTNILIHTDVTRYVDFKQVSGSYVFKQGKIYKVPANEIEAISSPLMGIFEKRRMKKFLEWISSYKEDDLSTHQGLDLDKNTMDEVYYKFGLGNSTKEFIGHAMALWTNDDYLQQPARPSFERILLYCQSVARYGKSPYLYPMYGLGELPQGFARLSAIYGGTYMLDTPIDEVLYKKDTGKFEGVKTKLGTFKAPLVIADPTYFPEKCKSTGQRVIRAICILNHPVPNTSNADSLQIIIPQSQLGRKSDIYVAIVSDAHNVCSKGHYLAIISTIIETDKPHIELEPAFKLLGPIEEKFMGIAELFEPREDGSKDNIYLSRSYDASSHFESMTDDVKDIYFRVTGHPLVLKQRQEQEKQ

Trs120-TAP = biological target: T2, Trs120-TAP (budding yeast, UniProt Q04183 1-1289); test: tandem affinity purification
T2 sequence: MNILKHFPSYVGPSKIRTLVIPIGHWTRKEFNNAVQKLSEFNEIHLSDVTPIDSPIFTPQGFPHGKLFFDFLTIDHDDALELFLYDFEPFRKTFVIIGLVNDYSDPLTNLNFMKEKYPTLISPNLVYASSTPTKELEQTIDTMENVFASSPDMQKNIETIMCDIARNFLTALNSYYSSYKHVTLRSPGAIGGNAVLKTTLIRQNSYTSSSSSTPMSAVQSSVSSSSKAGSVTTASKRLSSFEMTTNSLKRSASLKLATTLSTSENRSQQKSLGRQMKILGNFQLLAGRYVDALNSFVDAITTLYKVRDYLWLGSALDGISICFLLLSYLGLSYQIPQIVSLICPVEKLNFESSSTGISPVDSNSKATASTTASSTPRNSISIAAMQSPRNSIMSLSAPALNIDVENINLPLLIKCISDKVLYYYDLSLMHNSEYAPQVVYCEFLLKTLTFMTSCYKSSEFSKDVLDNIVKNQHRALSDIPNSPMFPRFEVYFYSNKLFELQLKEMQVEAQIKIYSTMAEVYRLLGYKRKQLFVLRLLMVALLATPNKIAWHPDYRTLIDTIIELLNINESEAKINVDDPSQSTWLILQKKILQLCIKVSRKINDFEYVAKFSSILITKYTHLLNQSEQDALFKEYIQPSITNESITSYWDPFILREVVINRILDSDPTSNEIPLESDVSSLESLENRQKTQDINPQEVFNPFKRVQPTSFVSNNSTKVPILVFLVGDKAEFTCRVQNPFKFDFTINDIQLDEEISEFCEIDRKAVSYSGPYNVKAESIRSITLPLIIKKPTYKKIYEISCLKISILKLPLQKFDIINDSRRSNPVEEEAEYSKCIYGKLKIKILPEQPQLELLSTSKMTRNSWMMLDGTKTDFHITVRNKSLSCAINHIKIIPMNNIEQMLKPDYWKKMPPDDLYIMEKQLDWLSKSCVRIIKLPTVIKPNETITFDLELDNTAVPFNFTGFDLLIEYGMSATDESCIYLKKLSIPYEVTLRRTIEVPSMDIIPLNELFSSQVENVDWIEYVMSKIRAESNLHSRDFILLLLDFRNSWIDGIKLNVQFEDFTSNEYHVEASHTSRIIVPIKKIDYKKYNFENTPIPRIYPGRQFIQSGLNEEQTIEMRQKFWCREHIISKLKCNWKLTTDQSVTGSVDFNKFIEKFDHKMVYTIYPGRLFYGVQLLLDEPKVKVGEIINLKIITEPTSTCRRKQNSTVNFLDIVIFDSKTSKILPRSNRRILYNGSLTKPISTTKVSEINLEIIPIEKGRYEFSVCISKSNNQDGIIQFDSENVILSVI

Trs85-TAP (from yeast) = biological target: T3, Trs85-TAP (from yeast) (budding yeast, UniProt P46944 1-698); test: tandem affinity purification
T3 sequence: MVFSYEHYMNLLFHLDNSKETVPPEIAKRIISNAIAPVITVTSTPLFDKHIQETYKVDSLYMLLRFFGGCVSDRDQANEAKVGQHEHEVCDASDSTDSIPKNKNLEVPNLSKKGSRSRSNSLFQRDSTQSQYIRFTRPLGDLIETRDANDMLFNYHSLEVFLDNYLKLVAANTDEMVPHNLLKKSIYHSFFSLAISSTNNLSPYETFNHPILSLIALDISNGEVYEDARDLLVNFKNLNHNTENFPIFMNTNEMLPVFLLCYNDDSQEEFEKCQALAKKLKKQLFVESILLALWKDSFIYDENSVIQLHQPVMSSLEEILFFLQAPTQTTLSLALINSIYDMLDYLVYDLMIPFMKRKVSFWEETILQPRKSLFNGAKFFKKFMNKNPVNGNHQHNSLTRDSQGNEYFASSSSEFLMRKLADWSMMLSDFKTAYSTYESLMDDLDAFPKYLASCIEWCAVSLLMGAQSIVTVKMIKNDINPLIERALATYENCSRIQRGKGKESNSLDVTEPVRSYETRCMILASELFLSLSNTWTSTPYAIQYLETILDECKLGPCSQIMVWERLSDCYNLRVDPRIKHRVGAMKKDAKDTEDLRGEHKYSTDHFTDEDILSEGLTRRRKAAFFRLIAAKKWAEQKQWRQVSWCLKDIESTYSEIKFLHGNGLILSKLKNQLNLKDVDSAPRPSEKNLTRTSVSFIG

| Binder | binding result (Gdi1) | stoichiometry N (Trs120-TAP) | stoichiometry N (Trs85-TAP (from yeast)) |
| --- | --- | --- | --- |
| prenylated Ypt1 (natural protein, prenylated with geranylgeranyl pyrophosphate in vitro; loaded with mantGDP) not shown | binds | – | – |
| Bet3 (endogenous, yeast) (natural protein) MVSTTQSRSLKAMGEEIWKNKTEKINTELFTLTYGSIVAQLCQDYERDFNKVNDHLYSMGYNIGCRLIEDFLARTALPRCENLVKTSEVLSKCAFKIFLNITPNITNWSHNKDTFSLILDENPLADFVELPMDAMKSLWYSNILCGVLKGSLEMVQLDCDVWFVSDILRGDSQTEIKVKLNRILKDEIPIGED | – | 2 | 2 |
